Source: patent publication US20090281024A1

Key:
[1] = target: MAT CR12 (matriptase CR pair 1-2) (human) (UniProt Q9Y5Y6); test: relative binding signal under isomolar conditions on MAT CR12 (heading of the figure); solid-phase binding assay
[2] = target: LRP2 CR89 Y1042W V1047D (human) (UniProt P98164); test: solid-phase assay, coated CR protein
[3] = target: LRP2 CR89 Y1042W V1047D R1088D (human) (UniProt P98164); test: solid-phase assay, coated CR protein

Sequence of MAT CR12 (matriptase CR pair 1-2) (human) (Q9Y5Y6 452-524 limits assumed): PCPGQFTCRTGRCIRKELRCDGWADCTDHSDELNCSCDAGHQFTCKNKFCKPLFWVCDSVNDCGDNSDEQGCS
Sequence of RAP d3 (wild-type third domain of the receptor-associated protein) (P30533 235-353): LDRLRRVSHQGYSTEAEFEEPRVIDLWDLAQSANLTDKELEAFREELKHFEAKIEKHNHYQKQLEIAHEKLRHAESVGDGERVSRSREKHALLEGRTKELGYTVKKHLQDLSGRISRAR
Sequence of LRP2 CR89 Y1042W V1047D (human) (P98164 1022-1105 Y1043W/V1048D limits assumed): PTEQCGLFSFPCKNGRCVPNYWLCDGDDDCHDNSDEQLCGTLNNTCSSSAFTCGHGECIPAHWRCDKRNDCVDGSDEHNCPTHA

fnctn (relative binding signal under isomolar conditions) [1]	% max bind [2] [%]	% max bind [3] [%]	Substance
0.65	–	–	MatRAP1 N-42 (from UniProt P30533 277-353) (designed binder)
–	11	15	RAP d3 (wild-type third domain of the receptor-associated protein) (from UniProt P30533 235-353) (ligand)
